# According to patent publication US20260234209A1:
# Molecular target: human FGFR1c (human), P11362
# Assay: cell-based or functional assay
# Chain of human FGFR1c (human), P11362 (P11362 22-822): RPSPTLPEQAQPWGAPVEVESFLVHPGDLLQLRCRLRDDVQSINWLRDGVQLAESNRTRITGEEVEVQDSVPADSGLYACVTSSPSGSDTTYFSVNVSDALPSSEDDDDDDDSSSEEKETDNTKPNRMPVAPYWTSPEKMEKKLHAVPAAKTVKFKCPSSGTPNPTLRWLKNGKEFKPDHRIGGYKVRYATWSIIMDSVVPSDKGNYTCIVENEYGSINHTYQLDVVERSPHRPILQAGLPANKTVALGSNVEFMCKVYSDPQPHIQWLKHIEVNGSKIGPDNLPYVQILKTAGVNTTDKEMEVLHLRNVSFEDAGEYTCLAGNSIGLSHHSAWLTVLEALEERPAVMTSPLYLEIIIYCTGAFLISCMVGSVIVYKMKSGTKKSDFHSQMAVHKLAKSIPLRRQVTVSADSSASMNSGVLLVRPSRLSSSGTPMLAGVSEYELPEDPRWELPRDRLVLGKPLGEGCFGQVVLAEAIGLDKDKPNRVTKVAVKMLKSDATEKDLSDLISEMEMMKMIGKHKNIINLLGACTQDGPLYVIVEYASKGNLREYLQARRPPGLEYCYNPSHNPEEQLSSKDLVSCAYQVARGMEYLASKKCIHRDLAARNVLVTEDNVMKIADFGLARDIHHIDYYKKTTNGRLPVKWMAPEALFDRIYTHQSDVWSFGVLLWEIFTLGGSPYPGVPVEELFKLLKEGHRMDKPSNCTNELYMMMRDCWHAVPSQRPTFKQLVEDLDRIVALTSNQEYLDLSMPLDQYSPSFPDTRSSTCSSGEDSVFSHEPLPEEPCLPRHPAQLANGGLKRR
Binder,EC50 of ERK1/2 phosphorylation (phosphoflow) in CHO-R1c cells [nM],EC50 of intracellular calcium release in CHO-R1c cells [nM],"EC50 of ERK phosphorylation (phosphoflow), C4-71N mb7 extension series [nM]"
C4-71C_mb7 (designed binder) MGPEEILERARESLERAREASERGDEEEFRKAAEKALELAKRLVEQAKKEGDPWMVMWAALVALWVALLALRNGDKEVFKKAAESALEVAKRLVEVASKEGDPEMVLLAAWVALFVAWLAWLFGDKEVFKKAAESALEVAKRLVEVASKEGDPELVEEAAKVAEEVEKLAEKQGDEEVREKAWETWMEVWLLWLEVRLRKGGGGSDRRKEMDKVYRTAYKRITSTPDKEKRKEVVKEATEQLRRIAKDEEEKKKAAYMISFLKTLGSLEHHHHHH,1.33,0.72,
C2-58-2X_mb7 (designed binder) MHHHHHHAENLYFQSGSDEELLRELLKLLLKLLEQMGDEEARRVVEELREELEKKGDPRALVLAFALVILVFLLRILRELGDEELVRRVEELWEELLKEGDPQAMMEVFKLVQELQERRGSGSDRRKEMDKVYRTAYKRITSTPDKEKRKEVVKEATEQLRRIAKDEEEKKKAAYMISFLKTLGS,0.63,26,
C4-71N_mb7 (designed binder) MGDRRKEMDKVYRTAYKRITSTPDKEKRKEVVKEATEQLRRIAKDEEEKKKAAYMISFLKTLGSPEEILERARESLERAREASERGDEEEFRKAAEKALELAKRLVEQAKKEGDPWMVMWAALVALWVALLALRNGDKEVFKKAAESALEVAKRLVEVASKEGDPEMVLLAAWVALFVAWLAWLFGDKEVFKKAAESALEVAKRLVEVASKEGDPELVEEAAKVAEEVEKLAEKQGDEEVREKAWETWMEVWLLWLEVRLRKGGGGSLEHHHHHH,0.89,,1.3

# The next lines start with the values.
EC50 of ERK1/2 phosphorylation (phosphoflow) in CHO-R1c cells [nM],EC50 of intracellular calcium release in CHO-R1c cells [nM],"EC50 of ERK phosphorylation (phosphoflow), C4-71N mb7 extension series [nM]",Binder
2.07,3.09,,C8-71C_mb7 (designed binder) MEKKIGPEEILERAKESLERAREASERGDEEEFRKAAEKALELAKRLVEQAKKEGDPELVLEAARVALWVAELAAKNGDKEVFKKAAESALEVAKRLVEVASKEGDPDLVAWAALVALWVAFLAFLNGDKEVFKKAAESALEVAKALMEVAMKVGAPWLVELAIAVARAVWLLAELFGDEEVRRRAEAFEIILRIAAIAVKAWLGGGGSDRRKEMDKVYRTAYKRITSTPDKEKRKEVVKEATEQLRRIAKDEEEKKKAAYMISFLKTLGSLEHHHHHH
1.56,0.38,,C6-79C_mb7 (designed binder) MGSSDEEEARELEERAREAAKRAIEAAKRTGDPRVRELAEELVKLAIWAAVEVWLDPSSSDVNEALKLIVEAIEAAVRALEAAERTGDPEVRELARELVRLAVEAAEEVQRNPSSSDVNEALKLIVIAIEAAVRALEAAERTGDPEVRELARELVRLAVEAAEEVQRNPSSEEVNEALRKIIKLILFAVMVLELAEEIGDPTWREMARRAVREAVELAEEVQRDPSGWLGHGSDRRKEMDKVYRTAYKRITSTPDKEKRKEVVKEATEQLRRIAKDEEEKKKAAYMISFLKTLGSLEHHHHHH
